Data: patent EP2767548A2

Biological target: Human CD16 (biotinylated, Sino Biological Inc, cat#10389-H27H1-B) (human) (UniProt P08637)
Assay: ELISA, biotinylated CD16 captured on neutravidin, anti-human Fab-HRP detection

Chain of Human CD16 (biotinylated, Sino Biological Inc, cat#10389-H27H1-B) (human) (P08637 17-208): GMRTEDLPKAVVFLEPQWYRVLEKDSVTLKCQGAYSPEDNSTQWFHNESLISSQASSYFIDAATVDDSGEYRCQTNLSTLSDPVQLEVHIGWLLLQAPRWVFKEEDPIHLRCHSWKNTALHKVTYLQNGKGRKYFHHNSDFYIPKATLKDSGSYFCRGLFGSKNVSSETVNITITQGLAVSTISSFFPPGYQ

EC50: 6.15 µg/mL
Substance: Synagis (antibody)
